Measurements taken from publication PMC3135353 (The Journal of Experimental Medicine, 2011).
Residue numbers refer to the chain shown, from its start. Numbers in names are those of the source.

T1: B7-H6, extracellular portion (residues Asp25-Ser262) (human, UniProt Q68D85 25-262, N-linked glycans seen at Asn43, Asn57 and Asn208)
T1 sequence (looked up): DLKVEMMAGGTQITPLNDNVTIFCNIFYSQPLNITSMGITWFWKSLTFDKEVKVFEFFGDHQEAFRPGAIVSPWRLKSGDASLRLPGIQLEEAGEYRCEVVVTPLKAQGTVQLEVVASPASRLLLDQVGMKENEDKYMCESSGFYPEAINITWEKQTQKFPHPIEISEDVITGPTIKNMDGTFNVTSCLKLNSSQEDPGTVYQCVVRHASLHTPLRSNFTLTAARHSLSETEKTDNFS

B1: NKp30 F85A/L86A mutant, extracellular portion (domain or fragment, human, UniProt O14931 19-135, looked up)
chain: LWVSQPPEIRTLEGSSAFLPCSFNASQGRLAIGSVTWFRDEVVPGKEVRNGTPEFRGRLAPLASSRAAHDHQAELHIRDVRGHDASIYVCRVEVLGLGVGTGNGTRLVVEKEHPQLG
B2: NKp30 S52R mutant, extracellular portion (domain or fragment, human, UniProt O14931 19-135, looked up)
chain: B1 chain with S34R, A67F, A68L
B3: NKp30 I50A/S52A mutant, extracellular portion (domain or fragment, human, UniProt O14931 19-135, looked up)
chain: B1 chain with I32A, S34A, A67F, A68L

The binders below were run against T1, B7-H6, extracellular portion (residues …) (assay: SPR).

Kd [µM]	Binder
53	B1
150	B2
14	B3
